The record followed here is paper doi:10.1101/2021.04.01.437949 (bioRxiv, 2021).

First the molecules themselves.
T1: TAP-tagged Kap120 (S. cerevisiae, UniProt Q02932 1-1032)
T1 sequence (looked up): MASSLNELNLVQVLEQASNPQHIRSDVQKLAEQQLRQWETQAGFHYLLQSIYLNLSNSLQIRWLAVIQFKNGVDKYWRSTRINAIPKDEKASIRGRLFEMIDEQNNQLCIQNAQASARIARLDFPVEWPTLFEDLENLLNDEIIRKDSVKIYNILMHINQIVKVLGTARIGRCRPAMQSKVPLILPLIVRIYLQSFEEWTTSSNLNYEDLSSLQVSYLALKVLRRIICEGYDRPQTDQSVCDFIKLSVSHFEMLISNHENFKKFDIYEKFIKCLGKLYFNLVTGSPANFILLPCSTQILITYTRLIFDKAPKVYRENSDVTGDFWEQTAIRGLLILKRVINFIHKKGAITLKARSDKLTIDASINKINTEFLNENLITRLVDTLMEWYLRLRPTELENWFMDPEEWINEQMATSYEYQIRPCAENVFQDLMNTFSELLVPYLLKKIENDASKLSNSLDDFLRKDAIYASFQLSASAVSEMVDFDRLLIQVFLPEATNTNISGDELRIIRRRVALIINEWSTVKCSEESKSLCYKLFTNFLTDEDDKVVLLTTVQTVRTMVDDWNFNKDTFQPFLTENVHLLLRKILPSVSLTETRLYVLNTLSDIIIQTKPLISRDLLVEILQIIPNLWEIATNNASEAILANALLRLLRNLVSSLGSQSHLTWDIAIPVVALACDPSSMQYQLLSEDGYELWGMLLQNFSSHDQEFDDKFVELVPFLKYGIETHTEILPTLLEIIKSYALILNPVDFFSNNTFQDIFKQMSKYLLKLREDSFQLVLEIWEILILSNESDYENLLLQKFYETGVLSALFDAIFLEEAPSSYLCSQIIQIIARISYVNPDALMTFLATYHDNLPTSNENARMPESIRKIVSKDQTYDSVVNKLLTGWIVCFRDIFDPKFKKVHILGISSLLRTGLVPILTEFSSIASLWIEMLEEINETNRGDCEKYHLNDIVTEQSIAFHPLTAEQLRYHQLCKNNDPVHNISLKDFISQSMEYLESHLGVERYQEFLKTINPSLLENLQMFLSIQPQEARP

B1: recombinant Kap120-6xHis (natural protein, S. cerevisiae, UniProt Q02932 1-1032, looked up)
chain: T1 sequence (looked up)
B2: Tail-GFP (Xrn1 Tail, amino acids 351-521, fused to GFP) (domain or fragment, S. cerevisiae, UniProt P22147 351-521, looked up)
chain: EKDDIDVEWFNKQLENISLEGERKRQRVGKKLLVKQQKKLIGSIKPWLMEQLQEKLSPDLPDEEIPTLELPKDLDMKDHLEFLKEFAFDLGLFITHSKSKGSYSLKMDLDSINPDETEEEFQNRVNSIRKTIKKYQNAIIVEDKEELETEKTIYNERFERWKHEYYHDKLK
B3: Dhh1 (natural protein, S. cerevisiae (endogenous in yeast), UniProt P39517 1-506, looked up)
chain: MGSINNNFNTNNNSNTDLDRDWKTALNIPKKDTRPQTDDVLNTKGNTFEDFYLKRELLMGIFEAGFEKPSPIQEEAIPVAITGRDILARAKNGTGKTAAFVIPTLEKVKPKLNKIQALIMVPTRELALQTSQVVRTLGKHCGISCMVTTGGTNLRDDILRLNETVHILVGTPGRVLDLASRKVADLSDCSLFIMDEADKMLSRDFKTIIEQILSFLPPTHQSLLFSATFPLTVKEFMVKHLHKPYEINLMEELTLKGITQYYAFVEERQKLHCLNTLFSKLQINQAIIFCNSTNRVELLAKKITDLGYSCYYSHARMKQQERNKVFHEFRQGKVRTLVCSDLLTRGIDIQAVNVVINFDFPKTAETYLHRIGRSGRFGHLGLAINLINWNDRFNLYKIEQELGTEIAAIPATIDKSLYVAENDETVPVPFPIEQQSYHQQAIPQQQLPSQQQFAIPPQQHHPQFMVPPSHQQQQAYPPPQMPSQQGYPPQQEHFMAMPPGQSQPQY
B4: Pat1 (natural protein, S. cerevisiae (endogenous in yeast), UniProt P25644 1-796, looked up)
chain: MSFFGLENSGNARDGPLDFEESYKGYGEHELEENDYLNDETFGDNVQVGTDFDFGNPHSSGSSGNAIGGNGVGATARSYVAATAEGISGPRTDGTAAAGPLDLKPMESLWSTAPPPAMAPSPQSTMAPAPAPQQMAPLQPILSMQDLERQQRQMQQQFMNFHAMGHPQGLPQGPPQQQFPMQPASGQPGPSQFAPPPPPPGVNVNMNQMPMGPVQVPVQASPSPIGMSNTPSPGPVVGATKMPLQSGRRSKRDLSPEEQRRLQIRHAKVEKILKYSGLMTPRDKDFITRYQLSQIVTEDPYNEDFYFQVYKIIQRGGITSESNKGLIARAYLEHSGHRLGGRYKRTDIALQRMQSQVEKAVTVAKERPSKLKDQQAAAGNSSQDNKQANTVLGKISSTLNSKNPRRQLQIPRQQPSDPDALKDVTDSLTNVDLASSGSSSTGSSAAAVASKQRRRSSYAFNNGNGATNLNKSGGKKFILELIETVYEEILDLEANLRNGQQTDSTAMWEALHIDDSSYDVNPFISMLSFDKGIKIMPRIFNFLDKQQKLKILQKIFNELSHLQIIILSSYKTTPKPTLTQLKKVDLFQMIILKIIVSFLSNNSNFIEIMGLLLQLIRNNNVSFLTTSKIGLNLITILISRAALIKQDSSRSNILSSPEISTWNEIYDKLFTSLESKIQLIFPPREYNDHIMRLQNDKFMDEAYIWQFLASLALSGKLNHQRIIIDEVRDEIFATINEAETLQKKEKELSVLPQRSQELDTELKSIIYNKEKLYQDLNLFLNVMGLVYRDGEISELK

The assay “recombinant Kap120-6xHis” concerns the target B1. Put plainly: pull-down.
The target in assay [1] is FLAG-tagged Xrn1 (wild type) (S. cerevisiae, UniProt P22147 1-1528). Put plainly: pull-down.
Chain of FLAG-tagged Xrn1 (wild type) (P22147 whole entry): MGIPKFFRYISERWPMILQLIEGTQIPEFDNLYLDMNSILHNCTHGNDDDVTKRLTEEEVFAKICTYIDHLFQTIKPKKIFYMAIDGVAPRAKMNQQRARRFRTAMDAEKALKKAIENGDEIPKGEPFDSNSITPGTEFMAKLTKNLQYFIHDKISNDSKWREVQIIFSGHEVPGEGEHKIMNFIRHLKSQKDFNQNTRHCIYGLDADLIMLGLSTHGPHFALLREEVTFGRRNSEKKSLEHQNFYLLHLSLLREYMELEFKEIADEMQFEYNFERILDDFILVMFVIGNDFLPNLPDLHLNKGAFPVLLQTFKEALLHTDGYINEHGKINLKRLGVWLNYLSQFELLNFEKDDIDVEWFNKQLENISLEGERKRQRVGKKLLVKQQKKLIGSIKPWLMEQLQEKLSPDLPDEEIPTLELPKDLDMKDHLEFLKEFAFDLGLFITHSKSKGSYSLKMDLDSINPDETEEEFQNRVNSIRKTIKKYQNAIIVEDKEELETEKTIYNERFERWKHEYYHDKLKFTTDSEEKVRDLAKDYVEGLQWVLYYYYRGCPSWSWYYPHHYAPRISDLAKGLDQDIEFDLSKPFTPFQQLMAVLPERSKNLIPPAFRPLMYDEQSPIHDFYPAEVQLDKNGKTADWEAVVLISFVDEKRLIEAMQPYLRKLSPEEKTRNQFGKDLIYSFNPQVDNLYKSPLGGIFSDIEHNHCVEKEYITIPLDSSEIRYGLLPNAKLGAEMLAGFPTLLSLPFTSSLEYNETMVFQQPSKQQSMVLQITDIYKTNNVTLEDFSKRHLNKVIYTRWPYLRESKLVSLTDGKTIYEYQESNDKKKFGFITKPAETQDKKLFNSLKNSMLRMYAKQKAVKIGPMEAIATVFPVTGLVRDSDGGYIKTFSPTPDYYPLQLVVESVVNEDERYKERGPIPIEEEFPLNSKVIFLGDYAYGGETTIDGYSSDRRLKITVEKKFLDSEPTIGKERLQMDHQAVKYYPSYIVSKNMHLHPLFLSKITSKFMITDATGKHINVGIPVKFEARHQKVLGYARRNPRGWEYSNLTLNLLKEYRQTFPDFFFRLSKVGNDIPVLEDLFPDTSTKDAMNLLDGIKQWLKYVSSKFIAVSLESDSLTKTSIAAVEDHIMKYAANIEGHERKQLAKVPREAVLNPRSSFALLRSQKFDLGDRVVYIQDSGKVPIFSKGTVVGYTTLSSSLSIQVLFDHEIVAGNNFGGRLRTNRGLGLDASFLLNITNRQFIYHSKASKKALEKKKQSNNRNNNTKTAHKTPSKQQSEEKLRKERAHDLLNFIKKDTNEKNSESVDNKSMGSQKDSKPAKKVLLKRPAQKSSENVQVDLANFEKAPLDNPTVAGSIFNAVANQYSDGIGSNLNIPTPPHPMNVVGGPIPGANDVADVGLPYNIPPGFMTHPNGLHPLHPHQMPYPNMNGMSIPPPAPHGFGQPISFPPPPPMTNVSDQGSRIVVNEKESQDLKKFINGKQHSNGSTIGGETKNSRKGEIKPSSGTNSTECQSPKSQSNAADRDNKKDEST
The next assay has as its target T1, TAP-tagged Kap120. Put plainly: co-IP.

For “FLAG-tagged Xrn1^ΔNLS1/2 (from UniProt P22147 1-1528) (enzyme)”, the fold weaker than Xrn1^WT-Kap120 with recombinant Kap120-6xHis stood at 4.5 fold.

Turning to B1, in assay [1], the binding result is “binds”.

For B2, the binding result with recombinant Kap120-6xHis is reported as “binds”.

Consider B3, for which the “fold reduction of the co-IP in Xrn1^ΔNLS1/2 cells against WT cells” value with TAP-tagged Kap120 is roughly 5 fold.

As to B4, in the assay with TAP-tagged Kap120, the “fold reduction of the co-IP in Xrn1^ΔNLS1/2 cells against WT cells” value is roughly 5 fold.
